Data taken from patent publication US20160355591A1.
Read-outs that look alike come from different tables or passages of the source. One block for each binder: values may come before it.

What was measured:
human serum complement [1] = test: cell-based or functional assay
human serum complement [2] = test: cell-based or functional assay; remark: listed apart in the source
[3] = target: T1, CD20 on dog lymphocytes and dog lymphoma cells (dog) (UniProt Q3C2E2); test: flow cytometry, dog lymphoma aspirate; none 3.24
T1 sequence (looked up): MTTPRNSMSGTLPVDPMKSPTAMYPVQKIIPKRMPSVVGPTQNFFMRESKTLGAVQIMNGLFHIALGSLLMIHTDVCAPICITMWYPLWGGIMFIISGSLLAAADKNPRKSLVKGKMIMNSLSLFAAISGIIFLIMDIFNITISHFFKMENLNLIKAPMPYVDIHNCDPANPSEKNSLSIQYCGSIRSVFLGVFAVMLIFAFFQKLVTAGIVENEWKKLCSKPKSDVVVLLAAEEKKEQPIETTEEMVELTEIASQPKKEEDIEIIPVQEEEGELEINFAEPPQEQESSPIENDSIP

[4] = target: T1, CD20 on dog lymphocytes and dog lymphoma cells (dog); test: flow cytometry, dog lymphoma aspirate; none 4.48
[5] = target: T2, CD20 on human cells (human) (UniProt P11836); test: indirect FACS, Raji cells, FITC-GAH Fc 2nd Ab; none 6.8
T2 sequence (looked up): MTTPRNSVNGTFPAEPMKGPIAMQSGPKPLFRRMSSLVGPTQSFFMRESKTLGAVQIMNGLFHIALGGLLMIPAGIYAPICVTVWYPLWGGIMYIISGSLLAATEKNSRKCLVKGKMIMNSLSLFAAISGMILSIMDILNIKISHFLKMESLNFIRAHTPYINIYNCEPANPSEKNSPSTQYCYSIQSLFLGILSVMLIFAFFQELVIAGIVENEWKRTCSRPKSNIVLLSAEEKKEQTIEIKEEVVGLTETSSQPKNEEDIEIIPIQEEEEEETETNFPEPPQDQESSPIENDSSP

[6] = target: T2, CD20 on human cells (human); test: indirect FACS, Daudi cells, FITC-GAH Fc 2nd Ab; none 3.1
[7] = target: T2, CD20 on human cells (human); test: indirect FACS, Ramos cells, FITC-GAH Fc 2nd Ab; none 3.1
[8] = target: T1, CD20 on dog lymphocytes and dog lymphoma cells (dog); test: flow cytometry, canine lymphoma aspirate 150836; none 3.2
[9] = target: T1, CD20 on dog lymphocytes and dog lymphoma cells (dog); test: flow cytometry, canine lymphoma aspirate 150836; none 4.5
[10] = target: T2, CD20 on human cells (human); test: indirect FACS, Namalwa cells, FITC-GAH Fc 2nd Ab; none 2.5
[11] = target: T2, CD20 on human cells (human); test: indirect FACS, SU-DHL-6 cells, FITC-GAH Fc 2nd Ab; none 4.6
[12] = target: T2, CD20 on human cells (human); test: indirect FACS, WSU-FSCCL cells, FITC-GAH Fc 2nd Ab; none 2.6
[13] = target: T2, CD20 on human cells (human); test: indirect flow cytometry, RL cells, FITC-GAH Fc 2nd Ab; none 2.4
[14] = target: T2, CD20 on human cells (human); test: indirect flow cytometry, Raji cells, FITC-GAH Fc 2nd Ab; none 6.9
[15] = target: T2, CD20 on human cells (human); test: indirect flow cytometry, Namalwa cells, FITC-GAH 2nd Ab; none 2.52
[16] = target: T2, CD20 on human cells (human); test: indirect flow cytometry, Daudi cells, FITC-GAH Fc 2nd Ab; none 3.2
[17] = target: T2, CD20 on human cells (human); test: indirect flow cytometry, Ramos cells, FITC-GAH Fc 2nd Ab; none 3.1
[18] = target: T2, CD20 on human cells (human); test: indirect flow cytometry, Namalwa cells, FITC-GAH Fc 2nd Ab; none 2.6
[19] = target: T2, CD20 on human cells (human); test: indirect flow cytometry, SU-DHL-6 cells, FITC-GAH Fc 2nd Ab; none 4.6
[20] = target: T2, CD20 on human cells (human); test: indirect flow cytometry, WSU-FSCCL cells, FITC-GAH Fc 2nd Ab; none 2.7
[21] = target: CD74 on human cells (human) (UniProt P04233); test: 697 (ALL) cells; no mAb 4.9
Chain of CD74 on human cells (human) (P04233 whole entry): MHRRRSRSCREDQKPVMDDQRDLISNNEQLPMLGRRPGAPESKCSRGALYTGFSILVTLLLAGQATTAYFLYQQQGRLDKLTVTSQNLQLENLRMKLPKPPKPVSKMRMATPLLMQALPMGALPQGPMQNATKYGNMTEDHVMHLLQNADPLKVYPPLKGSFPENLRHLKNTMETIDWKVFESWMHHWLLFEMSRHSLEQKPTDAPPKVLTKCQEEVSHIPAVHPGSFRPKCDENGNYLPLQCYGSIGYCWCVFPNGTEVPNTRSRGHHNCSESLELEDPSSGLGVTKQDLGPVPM

[22] = target: CD74 on human cells (human) (UniProt P04233); test: REH (ALL) cells; no mAb 3.9
[23] = target: CD74 on human cells (human) (UniProt P04233); test: K562 (CML) cells; no mAb 3.2
[24] = target: CD74 on human cells (human) (UniProt P04233); test: MN60 (ALL) cells; no mAb 8.1
[25] = target: CD74 on human cells (human) (UniProt P04233); test: WAC (CLL) cells; no mAb 15.8
[26] = target: CD74 on human cells (human) (UniProt P04233); test: MEC-1 (CLL) cells; no mAb 4.7
[27] = target: CD74 on human cells (human) (UniProt P04233); test: GDM-1 (AML) cells; no mAb 16.8
[28] = target: CD74 on human cells (human) (UniProt P04233); test: RS4;11 (ALL) cells; no mAb 6.4
[29] = target: CD74 on human cells (human) (UniProt P04233); test: Jeko-1 (MCL) cells; no mAb 14.3
[30] = target: CD74 on human cells (human) (UniProt P04233); test: Kasumi-3 (AML) cells; no mAb 9.6
[31] = target: CD74 on human cells (human) (UniProt P04233); test: Kasumi-1 (AML) cells; no mAb 18.2
[32] = target: CD74 on human cells (human) (UniProt P04233); test: Granta-519 (MCL) cells; no mAb 15.3
[33] = target: CD74 on human cells (human) (UniProt P04233); test: HC-1 (hairy cell leukemia) cells; no mAb 4.8
[34] = target: CD74 on dog lymphocytes and dog lymphoma cells (dog); test: flow cytometry, dog lymphoma aspirate; none 3.37
[35] = target: CD74 on dog lymphocytes and dog lymphoma cells (dog); test: flow cytometry, dog lymphoma aspirate; none 3.85
[36] = target: CD74 on dog lymphocytes and dog lymphoma cells (dog); test: flow cytometry, canine lymphoma aspirate 150836; none 3.4
[37] = target: CD74 on dog lymphocytes and dog lymphoma cells (dog); test: flow cytometry, canine lymphoma aspirate 150836; none 3.9
[38] = target: CD74 on human cells (human) (UniProt P04233); test: indirect flow cytometry, Namalwa cells, FITC-GAM 2nd Ab; none 2.91
[39] = target: HLA-DR (human leukocyte antigen-DR) on human lymphoma and leukemia cells and human lymphocytes (human); test: indirect flow cytometry, Namalwa cells, FITC-GAM 2nd Ab; none 2.91; control antibody (anti-CEA)

B1: hL243 (humanized L243 anti-HLA-DR antibody, IgG1/K isotype) (antibody, V domains shown)
VH: QVQLQQSGSELKKPGASVKVSCKASGFTFTNYGMNWVKQAPGQGLKWMGWINTYTREPTYADDFKGRFAFSLDTSVSTAYLQISSLKADDTAVYFCARDITAVVPTGFDYWGQGSLVTVSS
VL: DIQLTQSPSSLSASVGDRVTITCRASENIYSNLAWYRQKPGKAPKLLVFAASNLADGVPSRFSGSGSGTDYTFTISSLQPEDIATYYCQHFWTTPWAFGGGTKLQIKR
complement-mediated cytotoxic effect on Daudi cells (CDC, resazurin viability), EC50 (human serum complement [1]): 2.6 nM

B3: LL1 (murine anti-human CD74 mAb) (antibody, from a related filing, V domains shown)
VH: QIQLVQSGPELKKPGETVKVTCKTSGYTFTNYGVNWIKQTPGEGLQWMGWINPNTGEPTFDDDFKGRFAFSLESSASTAFLQISNLKNEDMGTYFCSRSRGKNEAWFAYWGQGTLVTVSE
VL: DVVMTQTPLSLPVSLGDQASISCRSSQSLVHRNGNTYLHWYLQKPGQSPKLLIYTVSNRFSGVPDRFSGSGSGTDFTLKISRVEAEDLGLYFCSQSSHVPPTFGAGTKLEI
mean FL [21]: 20.6
mean FL [22]: 61.1
mean FL [23]: 7
mean FL [24]: 25.9
mean FL [25]: 43.6
mean FL [26]: 44.7
mean FL [27]: 69.5
mean FL [28]: 24.3
mean FL [29]: 32.7
mean FL [30]: 18.4
mean FL [31]: 23.8
mean FL [32]: 50.8
mean FL [33]: 36.7
mean FL [34]: 4.01
% Positive [35]: 6.69%
mean FL [36]: 4
% Positive [37]: 6.7%
geometric mean fluorescence [38]: 17.3

Now from value to binder, other results behind:

mean FL [3]: 3.25
% Positive [4]: 3.96%
geometric mean fluorescence [5]: 267
geometric mean fluorescence [6]: 241
geometric mean fluorescence [7]: 204
mean FL [8]: 3.3
% Positive [9]: 4%
geometric mean fluorescence [10]: 10.1
geometric mean fluorescence [11]: 1200
geometric mean fluorescence [12]: 8.91
geometric mean fluorescence [13]: 128
geometric mean fluorescence [14]: 267
geometric mean fluorescence [15]: 6.28
geometric mean fluorescence [16]: 241
geometric mean fluorescence [17]: 204
geometric mean fluorescence [18]: 10.1
geometric mean fluorescence [19]: 1200
geometric mean fluorescence [20]: 8.9
B2: hA20 (veltuzumab, humanized anti-CD20 IgG1) (antibody, INN chains, looked up, V domains shown, part only)
VH: QVQLQQSGAEVKKPGSSVKVSCKASGYTFTSYNMHWVKQAPGQGLEWIGAIYPGMGDTSYNQKFKGKATLTADESTNTAYMELSSLRSEDTAFYYCARSTYYGGDWYFDVWGQGTTVTVSS
VL: DIQLTQSPSSLSASVGDRVTMTCRASSSVSYIHWFQQKPGKAPKPWIYATSNLASGVPVRFSGSGSGTDYTFTISSLQPEDIATYYCQQWTSNPPTFGGGTKLEIKR
complement-mediated cytotoxic effect on Daudi cells (CDC, resazurin viability), EC50 (human serum complement [2]): 0.66 nM

geometric mean fluorescence [39]: 3.32
B4: MN-14 (murine anti-carcinoembryonic antigen mAb) (antibody, from a related filing, V domains shown)
VH: EVKLLESGGGLVQSGGSLKLSCAASGFDFTTYWMSWVRQAPGKGLEWIGEIHPDSSTINYAPSLKDKFIVSRDNAKNTLYLQMSKVRSEDTALYYCASLYFGFPWFAYWGQGTPVTVSA
VL: EIQLTQSHKMMSTSVGDRVSITCKASQDVGTSVAWYQQRPGQSPKLLIYWTSTRHTGVPDRFTGSVSGTDFTLTITNVQSEDLADYFCQQYSLYRSFGGGTKLEIK
